Laboratory results published in the Immune Epitope Database (IEDB).

Each sequence was assayed against HLA-B*35:01 (assay: IEDB peptide-MHC binding, purified MHC/competitive/radioactivity; filed as Kd, often an IC50 or EC50 that approximates it; ≥ and ≤ were set here for values at or beyond the usual limits of such assays). Conditions: source organism: Plasmodium falciparum 3D7.
Sequence HPSDGKCNL has a Kd of at least 10000 nM.

What follows are sequences tested against HLA-B*53:01 in the same assay as above. Conditions: source organism: Plasmodium falciparum 3D7.
Work on HPSDGKCNL yielded a Kd of 3320 nM.
In the case of TPYAGEPAPF, the Kd is reported as 158 nM.

What follows are sequences tested against HLA-B*54:01 in the same assay as above. Conditions: source organism: Plasmodium falciparum 3D7.
HPSDGKCNL showed a Kd of at least 10000 nM.
Work on TPYAGEPAPF yielded a Kd of at least 10000 nM.

The sequences below were run against HLA-A*02:03 in the same assay as above. Conditions: source organism: Plasmodium falciparum.
ILSVSSFLFV gave a Kd of 19 nM.

These sequences were tested against HLA-A*11:01 in the same assay as above. Conditions: source organism: Plasmodium falciparum.
In the case of FILVNLLIFH, the Kd is reported as 1330 nM.
FLKENKLNK was tested, and the Kd was 3750 nM.
GTGSGVSSK was tested, and the Kd was 40 nM.
GTGSGVSSKK showed a Kd of 353 nM.
GVSENIFLK was tested, and the Kd was 5 nM.
For HVLSHNSYEK, the Kd was 200 nM.
With KILSVFFLA the Kd was 3.2 nM.
For KSLYDEHIK, the Kd was 231 nM.
Work on KSLYDEHIKK yielded a Kd of 29 nM.
Sequence RINEEKHEK has a Kd of 40 nM.
SLYDEHIKK showed a Kd of 8.6 nM.
With VLSHNSYEK the Kd was 19 nM.
In the case of VLYNTEKGR, the Kd is reported as 3160 nM.
VTCGNGIQVR gave a Kd of 11 nM.

Same assay, conditions: source organism: Plasmodium falciparum 3D7
Work on IIRLHSDASK yielded a Kd of at least 10000 nM.
In the case of RLHSDASKNK, the Kd is reported as 600 nM.
For SLLSTNLPY, the Kd was 353 nM.

The sequences below were run against HLA-A*02:02 in the same assay as above. Conditions: source organism: Plasmodium falciparum.
Sequence ILSVSSFLFV has a Kd of 3580 nM.
Sequence VLLGGVGLVL has a Kd of at least 10000 nM.

The sequences below were run against HLA-A*02:01 in the same assay as above. Conditions: source organism: Plasmodium falciparum.
With GLIMVLSFL the Kd was 22 nM.

Same assay, conditions: source organism: Plasmodium falciparum 3D7
FLIFFDLFLV gave a Kd of 12 nM.

What follows are sequences tested against HLA-B*51:01 in the same assay as above. Conditions: source organism: Plasmodium falciparum 3D7.
HPSDGKCNL showed a Kd of at least 10000 nM.
TPYAGEPAPF gave a Kd of 15 nM.

These sequences were tested against HLA-A*68:02 in the same assay as above. Conditions: source organism: Plasmodium falciparum.
With ILSVSSFLFV the Kd was 2100 nM.

Each sequence was assayed against HLA-B*07:02 in the same assay as above. Conditions: source organism: Plasmodium falciparum 3D7.
Work on HPSDGKCNL yielded a Kd of 275 nM.

What follows are sequences tested against HLA-A*02:06 in the same assay as above. Conditions: source organism: Plasmodium falciparum.
In the case of ILSVSSFLFV, the Kd is reported as 587 nM.
For KILSVFFLA, the Kd was 8 nM.

Each sequence was assayed against HLA-A*03:01 in the same assay as above. Conditions: source organism: Plasmodium falciparum.
FILVNLLIFH was tested, and the Kd was 733 nM.
With FLKENKLNK the Kd was 145 nM.
GTGSGVSSK was tested, and the Kd was 126 nM.
GTGSGVSSKK gave a Kd of 1100 nM.
GVSENIFLK was tested, and the Kd was 151 nM.
HVLSHNSYEK was tested, and the Kd was 407 nM.
Work on KILSVFFLA yielded a Kd of 18 nM.
Sequence KSLYDEHIK has a Kd of at least 10000 nM.
In the case of KSLYDEHIKK, the Kd is reported as 1000 nM.
Work on RINEEKHEK yielded a Kd of 786 nM.
SLYDEHIKK gave a Kd of 28 nM.
Sequence VLSHNSYEK has a Kd of 79 nM.
VLYNTEKGR was tested, and the Kd was 282 nM.
With VTCGNGIQVR the Kd was 6880 nM.

Same assay, conditions: source organism: Plasmodium falciparum 3D7
In the case of ALLACAGLAY, the Kd is reported as 355 nM.
With IIRLHSDASK the Kd was 324 nM.
RLHSDASKNK showed a Kd of 256 nM.
With SLLSTNLPY the Kd was 1150 nM.

The sequences below were run against HLA-A*33:01 in the same assay as above. Conditions: source organism: Plasmodium falciparum.
For FILVNLLIFH, the Kd was 397 nM.
Work on FLKENKLNK yielded a Kd of 2640 nM.
GTGSGVSSK gave a Kd of at least 10000 nM.
With GTGSGVSSKK the Kd was at least 10000 nM.
GVSENIFLK gave a Kd of 8290 nM.
Work on HVLSHNSYEK yielded a Kd of at least 10000 nM.
KILSVFFLA was tested, and the Kd was 5920 nM.
Work on KSLYDEHIK yielded a Kd of at least 10000 nM.
KSLYDEHIKK showed a Kd of at least 10000 nM.
RINEEKHEK was tested, and the Kd was at least 10000 nM.
In the case of SLYDEHIKK, the Kd is reported as at least 10000 nM.
Work on VLSHNSYEK yielded a Kd of at least 10000 nM.

Same assay, conditions: source organism: Plasmodium falciparum 3D7
Sequence ALLACAGLAY has a Kd of 5090 nM.
IIRLHSDASK showed a Kd of at least 10000 nM.
LLACAGLAY gave a Kd of 6590 nM.
In the case of RLHSDASKNK, the Kd is reported as at least 10000 nM.
Sequence SLLSTNLPY has a Kd of at least 10000 nM.

These sequences were tested against HLA-A*31:01 in the same assay as above. Conditions: source organism: Plasmodium falciparum.
FILVNLLIFH showed a Kd of 1960 nM.
For FLKENKLNK, the Kd was at least 10000 nM.
GTGSGVSSK showed a Kd of at least 10000 nM.
With GTGSGVSSKK the Kd was at least 10000 nM.
Work on GVSENIFLK yielded a Kd of 2250 nM.
With HVLSHNSYEK the Kd was at least 10000 nM.
KILSVFFLA gave a Kd of 7830 nM.
KSLYDEHIK gave a Kd of at least 10000 nM.
KSLYDEHIKK was tested, and the Kd was at least 10000 nM.
RINEEKHEK gave a Kd of 486 nM.
SLYDEHIKK gave a Kd of at least 10000 nM.
VLSHNSYEK was tested, and the Kd was at least 10000 nM.
Sequence VLYNTEKGR has a Kd of 8570 nM.
With VTCGNGIQVR the Kd was 15 nM.

Same assay, conditions: source organism: Plasmodium falciparum 3D7
With ALLACAGLAY the Kd was 5460 nM.
With IIRLHSDASK the Kd was at least 10000 nM.
LLACAGLAY showed a Kd of at least 10000 nM.
With RLHSDASKNK the Kd was at least 10000 nM.
SLLSTNLPY gave a Kd of at least 10000 nM.

Each sequence was assayed against HLA-A*68:01 in the same assay as above. Conditions: source organism: Plasmodium falciparum.
For FLKENKLNK, the Kd was 444 nM.
With GTGSGVSSK the Kd was 3480 nM.
GTGSGVSSKK was tested, and the Kd was at least 10000 nM.
With GVSENIFLK the Kd was 10 nM.
In the case of KILSVFFLA, the Kd is reported as 8890 nM.
Work on KSLYDEHIK yielded a Kd of at least 10000 nM.
KSLYDEHIKK gave a Kd of at least 10000 nM.
RINEEKHEK showed a Kd of at least 10000 nM.
Work on SLYDEHIKK yielded a Kd of 615 nM.
VLSHNSYEK was tested, and the Kd was 2860 nM.
VLYNTEKGR showed a Kd of 1230 nM.
VTCGNGIQVR gave a Kd of 444 nM.

Same assay, conditions: source organism: Plasmodium falciparum 3D7
ALLACAGLAY was tested, and the Kd was at least 10000 nM.
Work on IIRLHSDASK yielded a Kd of at least 10000 nM.
For LLACAGLAY, the Kd was 2500 nM.
For RLHSDASKNK, the Kd was at least 10000 nM.
For SLLSTNLPY, the Kd was at least 10000 nM.
